Results taken from paper PMC3969726, “ArdA proteins from different mobile genetic elements can bind to the EcoKI Type I DNA methyltransferase of E. coli K12^☆” (Biochimica et Biophysica Acta, 2014).

Molecular target: the molecule itself
Test: SEC; Biosep-SEC-S3000 column; 20 mM Tris-HCl, 20 mM MES, 200 mM NaCl, 10 mM MgCl2, 0.1 mM EDTA, 7 mM 2-mercaptoethanol, pH 6.5; 25 °C; apparent molecular mass against injected monomer concentration, fitted to a monomer-dimer equilibrium; apparent constants; dimer to monomers

B1: V583 ArdA (ArdA protein from Enterococcus faecalis V583, Orf EF2335) (natural protein, UniProt Q832A5 1-166, looked up)
chain: MEQMRVYIANLGKYNEGELVGAWFTPPVDFDEVKERIGLNDDYEEYAIHDYELPFEIDEYTSIEEINRLCGLAEELEGTPIGEVASEIQHAFFNSFEEMVEHVDDIVYYPDCNDMEDLAYQMVNEGYLGDAPENFVRYFNYSSFARDLEIEGNYLVTNRGIFEYPI
notes: ArdA protein, open reading frame EF2335 of Enterococcus faecalis V583; In solution an equilibrium of monomer and dimer; source: overexpressed, purified (DEAE anion exchange chromatography, size exclusion chromatography)
For B1, the Kd was 980 nM.
